We go through 54 substances from the supplement of paper PMC12042874.

± gives the uncertainty stated by the source.

The nature of the data set: amyloid nucleation score (Sup35N fusion, yeast selection) (log enrichment); library NNK3; higher = more nucleation; inactive = no reads after selection. In short, it runs like this:
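Growth for 7 days at 30°C on medium lacking adenine and uracil followed a 24-hour induction with 100 μM copper sulfate of psi-negative yeast expressing peptides of 20 random codons fused to Sup35N. Input and output plasmid inserts were sequenced with Illumina, and sequences with under 100 input reads were excluded. Nucleation score is the DiMSum log enrichment of output over input reads, centred on the mode score of non-aggregating sequences.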
Consider WACIQK, for which the amyloid nucleation score result is “inactive”. Take FCFRDIYKRSMSRSAYDSG: the amyloid nucleation score entry was “inactive”.

Take LEYAYSELNSSVSTLSSFE: the amyloid nucleation score entry is “inactive”.

Take LYRLPRGYIRGGLLMLSS: the amyloid nucleation score result was “inactive”. The value for NHVILKNFFLMLQCYNFTTM was “inactive”; that for TNTNTCL was “inactive”.

On to SVVDRGASRFKRTVNVSNKA, for which the amyloid nucleation score result was “inactive”. With QRELSNMVVISLVQAMLWFR, the amyloid nucleation score entry is “inactive”.

FCFFSVSLDVLVHSGIC came in with an amyloid nucleation score of 0.417 ± 0.19. The value for NTVSHMY was “inactive”; that for GICWY was “inactive”; that for LLVAYPHYAGFCTAVSSKSG was “inactive”. Turning to MVDVNLAKRNGMNQSLHGNS, the amyloid nucleation score entry was “inactive”. The value for PRRMHMGHAVFDIMGTLRSK was 0.9 ± 0.15.

Substance VERHFAVDERP registered an amyloid nucleation score of -0.682 ± 2.5. Take DDCFIARAFLSLGLPELYLG: the amyloid nucleation score entry is “inactive”. The value for MCLSILE was “inactive”; that for HQYWEGCSMLYL was “inactive”; that for ISLVAAKLRTCF was “inactive”. With YTLAFECLPSLTMQVRNWMM, the amyloid nucleation score result was “inactive”. The value for LIYTGSAIIINRIWE was 2.17 ± 0.08; that for VFQRVNISVCINVVKFMSSM was 1.65 ± 0.069. In the case of FSASSISDKIFSMEYCTTWV, the amyloid nucleation score entry is “inactive”. As for SSAYHSHDSSRTKRNRSGRM, the amyloid nucleation score result is “inactive”. The value for CCLEILGTLFN was “inactive”; that for RGSCEFSSLECDTWSNRPSD was “inactive”; that for TKFIMKRLLVERVSCFLRSH was “inactive”. The value for HVLSVQTLYLFCKGLKESGT was 0.809 ± 0.16; that for CYVWSTALCVNISCGSSTAE was 2.7 ± 0.054. YYMRDCSYIHEFGTGVASDR: the amyloid nucleation score result is “inactive”. The value for RLVWGCCLLDTCVVEQGSGV was 2.78 ± 0.076; that for FAMMDELRRMWARSACSTRV was “inactive”; that for YNGGIRVTLT was “inactive”.

With GSASHDPTACCFYGFV, the amyloid nucleation score result was “inactive”. The value for IPFLDKGYGR was “inactive”; that for FFPAMRTCWGKSGCARPYA was “inactive”. The value for LNGRYSLLWR was “inactive”. Substance NLCRVMMFSFFTLLV gave an amyloid nucleation score of 1.44 ± 0.1. The value for IDLRC was “inactive”. LQSNFRSPTISGFTTEKVGK: the amyloid nucleation score result is “inactive”. The value for PAGWGWSCCFDFLSSISKIY was “inactive”; that for SCSIVDWSLMIVTYLCWLTN was “inactive”; that for LLIRTSLVGEIPLSVSVGCL was “inactive”. The value for SPVIKRYCILM was “inactive”; that for FVYQYYV was “inactive”; that for RYCVS was “inactive”. The value for EPCSLPTSGPMGMVGNIKSG was “inactive”; that for GLSLNYCVLGYGLLTM was “inactive”; that for WEELDYNSDPLLAGSVTDYM was “inactive”. As to LVLLHVLGERSSAPRRTVMR, the amyloid nucleation score result is “inactive”. On to RSTWFSFFRRTAHWKKALRP, for which the amyloid nucleation score result was “inactive”. WSFRNVVSVGMWYLCSDRIG: the amyloid nucleation score entry is “inactive”.

With SSWLLLAGKIW, the amyloid nucleation score result is “inactive”. As for SYSGIYILSSFAATSSFILS, the amyloid nucleation score was 0.46 ± 0.2.
